Measured values reported in patent US20080020978A1 (Amgen, published 2008).
Square brackets hold non-standard residues; d marks the D form. hArg = N=C(N)NCCCC[C@H](N)C(=O)O; Tic = O=C(O)[C@@H]1Cc2ccccc2CN1; Cit = NC(=O)NCCC[C@H](N)C(=O)O

Each binder was assayed against CGRP1 receptor (CRLR/RAMP1 complex) of human neuroblastoma SK-N-MC cells (human, UniProt Q16602 23-461; O60894 27-148) (assay: cell-based or functional assay).
CGRP1 receptor (CRLR/RAMP1 complex) of human neuroblastoma SK-N-MC cells, sequence (Q16602 23-461, chain 1 of 2): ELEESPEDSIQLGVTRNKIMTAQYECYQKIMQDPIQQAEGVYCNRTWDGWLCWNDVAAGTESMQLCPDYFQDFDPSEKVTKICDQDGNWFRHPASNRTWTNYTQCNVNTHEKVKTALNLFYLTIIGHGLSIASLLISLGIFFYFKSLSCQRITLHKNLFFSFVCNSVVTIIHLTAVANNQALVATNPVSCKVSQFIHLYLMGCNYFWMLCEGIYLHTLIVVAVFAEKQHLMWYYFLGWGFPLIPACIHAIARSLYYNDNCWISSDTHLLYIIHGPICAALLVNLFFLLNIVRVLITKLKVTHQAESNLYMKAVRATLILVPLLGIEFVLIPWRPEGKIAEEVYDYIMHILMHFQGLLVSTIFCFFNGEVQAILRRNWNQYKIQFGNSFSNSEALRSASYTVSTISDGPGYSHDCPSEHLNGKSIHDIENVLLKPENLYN
CGRP1 receptor (CRLR/RAMP1 complex) of human neuroblastoma SK-N-MC cells, sequence (O60894 27-148, chain 2 of 2): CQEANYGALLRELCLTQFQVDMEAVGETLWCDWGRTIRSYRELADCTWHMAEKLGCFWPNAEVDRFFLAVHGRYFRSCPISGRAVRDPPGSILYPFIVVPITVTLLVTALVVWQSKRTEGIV

Binder | IC50
Ac-WVTH[Cit]LAGLLS[Cit]SGGVVRKNFVPTDVG[Tic]FAF-NH2 [SEQ ID NO 140] | 3.02 nM
WVTHXLAGLLSXSGGVVXKNXVPTDVGXFAF (Ac-WVTH[Cit]LAGLLS[Cit]SGGVV[hArg]KN[2-Nal]VPTDVG[Oic]FAF-NH2) [SEQ ID NO 137] | 2.66 nM
WVTHXLAGLLSXSGGVVXKNXVXTDVGXFAX (Ac-WVTH[Cit]LAGLLS[Cit]SGGVV[hArg]KN[2-Nal]V[Oic]TDVG[Oic]FA[2-Nal]-NH2) [SEQ ID NO 139] | 3.57 nM
WVTHXLAGLLSXSGGVVXKNXVPTDVGXFAX (Ac-WVTH[Cit]LAGLLS[Cit]SGGVV[hArg]KN[2-Nal]VPTDVG[Oic]FA[2-Nal]-NH2) [SEQ ID NO 138] | 3.45 nM
Ac-KWVTH[Cit]LAGLLS[Cit]SGGVVRKNFVPTDVGPKAF-NH2 (SMILES CC(=O)N[C@@H](CCCCN)C(=O)N[C@@H](Cc1c[nH]c2ccccc12)C(=O)N[C@H](C(=O)N[C@H](C(=O)N[C@@H](Cc1c[nH]cn1)C(=O)N[C@@H](CCCNC(N)=O)C(=O)N[C@@H](CC(C)C)C(=O)N[C@@H](C)C(=O)NCC(=O)N[C@@H](CC(C)C)C(=O)N[C@@H](CC(C)C)C(=O)N[C@@H](CO)C(=O)N[C@@H](CCCNC(N)=O)C(=O)N[C@@H](CO)C(=O)NCC(=O)NCC(=O)N[C@H](C(=O)N[C@H](C(=O)N[C@@H](CCCNC(=N)N)C(=O)N[C@@H](CCCCN)C(=O)N[C@@H](CC(N)=O)C(=O)N[C@@H](Cc1ccccc1)C(=O)N[C@H](C(=O)N1CCC[C@H]1C(=O)N[C@H](C(=O)N[C@@H](CC(=O)O)C(=O)N[C@H](C(=O)NCC(=O)N1CCC[C@H]1C(=O)N[C@@H](CCCCN)C(=O)N[C@@H](C)C(=O)N[C@@H](Cc1ccccc1)C(N)=O)C(C)C)[C@@H](C)O)C(C)C)C(C)C)C(C)C)[C@@H](C)O)C(C)C) [SEQ ID NO 128] | 13 nM

Next, values leading:

IC50 | Binder
> 1000 nM | Ac-WVTH[Cit]LAGLLS[Cit]SGGVV[hArg]KNFVPTDVGPF-NH2 (SMILES CC(=O)N[C@@H](Cc1c[nH]c2ccccc12)C(=O)N[C@H](C(=O)N[C@H](C(=O)N[C@@H](Cc1c[nH]cn1)C(=O)N[C@@H](CCCNC(N)=O)C(=O)N[C@@H](CC(C)C)C(=O)N[C@@H](C)C(=O)NCC(=O)N[C@@H](CC(C)C)C(=O)N[C@@H](CC(C)C)C(=O)N[C@@H](CO)C(=O)N[C@@H](CCCNC(N)=O)C(=O)N[C@@H](CO)C(=O)NCC(=O)NCC(=O)N[C@H](C(=O)N[C@H](C(=O)N[C@@H](CCCCNC(=N)N)C(=O)N[C@@H](CCCCN)C(=O)N[C@@H](CC(N)=O)C(=O)N[C@@H](Cc1ccccc1)C(=O)N[C@H](C(=O)N1CCC[C@H]1C(=O)N[C@H](C(=O)N[C@@H](CC(=O)O)C(=O)N[C@H](C(=O)NCC(=O)N1CCC[C@H]1C(=O)N[C@@H](Cc1ccccc1)C(N)=O)C(C)C)[C@@H](C)O)C(C)C)C(C)C)C(C)C)[C@@H](C)O)C(C)C) [SEQ ID NO 655]
10.1 nM | WVTHXLAGLLSXSGGVVRKNFVPTDVGPXAF (Ac-WVTH[Cit]LAGLLS[Cit]SGGVVRKNFVPTDVGP[Tic]AF-NH2) [SEQ ID NO 146]
2.24 nM | WVTHXLAGLLSXSGGVVXKNFVPTDVGPXAF (Ac-WVTH[Cit]LAGLLS[Cit]SGGVV[hArg]KNFVPTDVGP[1-Nal]AF-NH2) [SEQ ID NO 144]
3.22 nM | WVTHXLAGLLSXSGGVVXKNFVPTDVGPFAF (Ac-WVTH[Cit]LAGLLS[Cit]SGGVV[hArg]KNFVPTDVGPFAF-NH2) [SEQ ID NO 653]
> 1000 nM | Ac-WVTH[Cit]LAGLLS[Cit]SGGVV[hArg]KNFVPTDVGPFA-NH2 (not fully specified) [SEQ ID NO 654]
4.32 nM | Ac-WVTH[Cit]LAGLLS[Cit]SGGVVRKNFVPTDVG[Tic]FAF-NH2 [SEQ ID NO 141]
